In PMC4104448 (2014):
One block for each binder: values may come before it.

B1: Biotinylated human β-glucocerebrosidase (residues 40A-536R) (enzyme)
chain: ARPCIPKSFGYSSVVCVCNATYCDSFDPPTFPALGTFSRYESTRSGRRMELSMGPIQANHTGTGLLLTLQPEQKFQKVKGFGGAMTDAAALNILALSPPAQNLLLKSYFSEEGIGYNIIRVPMASCDFSIRTYTYADTPDDFQLHNFSLPEEDTKLKIPLIHRALQLAQRPVSLLASPWTSPTWLKTNGAVNGKGSLKGQPGDIYHQTWARYFVKFLDAYAEHKLQFWAVTAENEPSAGLLSGYPFQCLGFTPEHQRDFIARDLGPTLANSTHHNVRLLMLDDQRLLLPHWAKVVLTDPEAAKYVHGIAVHWYLDFLAPAKATLGETHRLFPNTMLFASEACVGSKFWEQSVRLGSWDRGMQYSHSIITNLLYHVVGWTDWNLALNPEGGPNWVRNFVDSPIIVDITKDTFYKQPMFYHLGHFSKFIPEGSQRVGLVASQKNDLDAVALMHPDGSAVVVVLNRSSKDVPLTIKDPAVGFLETISPGYSIHTYLWRRQ
modifications: biotin (in vivo biotinylated by BirA)

Columns and labels:
H150T mutant LIMP-2 [1] = target: T1, H150T mutant LIMP-2 (human, UniProt Q14108 28-432, H150T); experiment: SPR; pH 5.5
T1 sequence: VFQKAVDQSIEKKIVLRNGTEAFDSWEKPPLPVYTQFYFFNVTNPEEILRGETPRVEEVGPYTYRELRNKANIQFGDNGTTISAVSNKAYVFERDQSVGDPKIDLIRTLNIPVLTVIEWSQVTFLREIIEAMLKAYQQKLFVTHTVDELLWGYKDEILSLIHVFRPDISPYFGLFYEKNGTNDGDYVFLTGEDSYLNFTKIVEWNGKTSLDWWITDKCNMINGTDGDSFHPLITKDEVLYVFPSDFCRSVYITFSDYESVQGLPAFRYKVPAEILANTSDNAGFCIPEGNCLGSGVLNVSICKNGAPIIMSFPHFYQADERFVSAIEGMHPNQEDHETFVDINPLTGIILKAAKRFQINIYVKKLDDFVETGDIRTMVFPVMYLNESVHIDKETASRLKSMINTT

H150T mutant LIMP-2 [2] = target: T1, H150T mutant LIMP-2; experiment: SPR; pH 6.5
[3] = target: B1; experiment: SPR
[4] = target: B1; experiment: SPR; 2 mM G6P
[5] = target: T2, Biotinylated human CI-MPR domains I-XV (residues 41Q-G2293) (human, UniProt P11717 41-2293, biotin (in vivo biotinylated by BirA)); experiment: SPR; 2 mM G6P
T2 sequence (P11717 41-2293): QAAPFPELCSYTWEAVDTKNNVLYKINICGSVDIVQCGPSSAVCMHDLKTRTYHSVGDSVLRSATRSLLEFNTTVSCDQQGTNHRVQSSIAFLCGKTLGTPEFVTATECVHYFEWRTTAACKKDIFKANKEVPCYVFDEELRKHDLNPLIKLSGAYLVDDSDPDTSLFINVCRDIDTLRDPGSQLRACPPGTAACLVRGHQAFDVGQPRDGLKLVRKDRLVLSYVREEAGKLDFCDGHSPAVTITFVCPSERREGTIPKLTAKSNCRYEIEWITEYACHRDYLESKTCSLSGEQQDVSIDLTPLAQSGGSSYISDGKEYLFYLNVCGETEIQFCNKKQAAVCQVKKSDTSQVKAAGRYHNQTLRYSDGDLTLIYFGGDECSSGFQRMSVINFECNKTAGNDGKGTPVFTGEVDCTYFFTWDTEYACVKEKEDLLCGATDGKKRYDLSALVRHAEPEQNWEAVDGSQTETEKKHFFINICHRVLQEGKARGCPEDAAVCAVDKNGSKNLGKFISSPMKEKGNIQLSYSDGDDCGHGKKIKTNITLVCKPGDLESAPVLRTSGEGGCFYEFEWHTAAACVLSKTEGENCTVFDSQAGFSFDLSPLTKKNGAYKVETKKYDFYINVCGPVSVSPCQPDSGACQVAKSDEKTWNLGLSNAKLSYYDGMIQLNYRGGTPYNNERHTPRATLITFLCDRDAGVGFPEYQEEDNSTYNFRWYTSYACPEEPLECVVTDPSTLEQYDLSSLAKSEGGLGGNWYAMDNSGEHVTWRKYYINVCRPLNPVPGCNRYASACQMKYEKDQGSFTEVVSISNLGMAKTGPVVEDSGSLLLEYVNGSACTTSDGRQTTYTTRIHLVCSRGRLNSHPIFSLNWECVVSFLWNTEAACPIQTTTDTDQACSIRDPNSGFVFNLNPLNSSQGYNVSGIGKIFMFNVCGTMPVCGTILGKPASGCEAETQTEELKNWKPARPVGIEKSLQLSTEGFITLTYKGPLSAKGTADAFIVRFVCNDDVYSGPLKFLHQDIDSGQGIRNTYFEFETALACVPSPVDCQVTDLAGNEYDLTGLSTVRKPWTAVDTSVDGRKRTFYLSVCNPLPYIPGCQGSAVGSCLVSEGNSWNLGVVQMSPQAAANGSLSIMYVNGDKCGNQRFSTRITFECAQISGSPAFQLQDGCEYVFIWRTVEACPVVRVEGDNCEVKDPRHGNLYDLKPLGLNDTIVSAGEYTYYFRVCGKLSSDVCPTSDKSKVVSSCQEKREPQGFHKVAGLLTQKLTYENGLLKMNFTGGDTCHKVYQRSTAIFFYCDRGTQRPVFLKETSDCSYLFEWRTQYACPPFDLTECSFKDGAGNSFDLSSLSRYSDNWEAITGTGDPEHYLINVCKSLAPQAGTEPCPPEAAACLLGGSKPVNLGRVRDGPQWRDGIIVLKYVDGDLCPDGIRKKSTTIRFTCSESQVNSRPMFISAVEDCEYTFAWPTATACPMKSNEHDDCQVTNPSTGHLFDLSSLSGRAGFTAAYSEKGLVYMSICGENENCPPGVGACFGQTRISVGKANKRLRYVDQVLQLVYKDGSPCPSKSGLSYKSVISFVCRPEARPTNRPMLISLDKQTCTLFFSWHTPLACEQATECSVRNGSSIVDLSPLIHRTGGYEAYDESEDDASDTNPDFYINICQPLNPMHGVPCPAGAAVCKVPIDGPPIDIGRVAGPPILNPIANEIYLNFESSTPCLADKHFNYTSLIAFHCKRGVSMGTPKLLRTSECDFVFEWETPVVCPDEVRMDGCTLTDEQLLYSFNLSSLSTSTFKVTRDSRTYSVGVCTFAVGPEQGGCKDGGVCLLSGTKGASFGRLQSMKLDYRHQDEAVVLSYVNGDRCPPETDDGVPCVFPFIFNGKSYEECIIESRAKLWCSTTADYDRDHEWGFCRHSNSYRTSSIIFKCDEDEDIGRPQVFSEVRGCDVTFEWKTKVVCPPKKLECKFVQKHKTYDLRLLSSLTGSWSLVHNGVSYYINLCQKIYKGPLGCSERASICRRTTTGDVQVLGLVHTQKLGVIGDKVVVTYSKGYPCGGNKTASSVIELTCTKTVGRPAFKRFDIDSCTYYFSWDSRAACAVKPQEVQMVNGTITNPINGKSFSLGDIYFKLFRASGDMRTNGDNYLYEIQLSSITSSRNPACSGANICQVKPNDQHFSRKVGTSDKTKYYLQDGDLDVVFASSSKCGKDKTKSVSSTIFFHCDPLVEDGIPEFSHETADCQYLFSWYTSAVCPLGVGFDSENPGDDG

[6] = target: B1; experiment: SPR; 2 mM M6P
[7] = target: B1; experiment: SPR; 2 mM mannose
[8] = target: T2, Biotinylated human CI-MPR domains I-XV …; experiment: SPR; 2 mM mannose
[9] = target: B1; experiment: SPR; pH 6.5
[10] = target: T2, Biotinylated human CI-MPR domains I-XV …; experiment: SPR; with 2 mM mannose
[11] = target: T2, Biotinylated human CI-MPR domains I-XV …; experiment: SPR; buffer without sugar

Kd [3]: 2060 nM | Kd [4]: 1800 nM | Kd [5]: 1160 nM | Kd [6]: 2100 nM | Kd [7]: 2830 nM | Kd [8]: 1200 nM
B2: Human LIMP-2 luminal domain (residues 28-431) produced from HEK293T cells, with full glycosylation (domain or fragment)
chain: VFQKAVDQSIEKKIVLRNGTEAFDSWEKPPLPVYTQFYFFNVTNPEEILRGETPRVEEVGPYTYRELRNKANIQFGDNGTTISAVSNKAYVFERDQSVGDPKIDLIRTLNIPVLTVIEWSQVHFLREIIEAMLKAYQQKLFVTHTVDELLWGYKDEILSLIHVFRPDISPYFGLFYEKNGTNDGDYVFLTGEDSYLNFTKIVEWNGKTSLDWWITDKCNMINGTDGDSFHPLITKDEVLYVFPSDFCRSVYITFSDYESVQGLPAFRYKVPAEILANTSDNAGFCIPEGNCLGSGVLNVSICKNGAPIIMSFPHFYQADERFVSAIEGMHPNQEDHETFVDINPLTGIILKAAKRFQINIYVKKLDDFVETGDIRTMVFPVMYLNESVHIDKETASRLKSMINT
modifications: full glycosylation

Kd [3]: 3000 nM
B3: Human LIMP-2 luminal domain produced from HEK293S (GNTI-) cells and deglycosylated with endoglycosidase F1 (domain or fragment)
chain: VFQKAVDQSIEKKIVLRNGTEAFDSWEKPPLPVYTQFYFFNVTNPEEILRGETPRVEEVGPYTYRELRNKANIQFGDNGTTISAVSNKAYVFERDQSVGDPKIDLIRTLNIPVLTVIEWSQVHFLREIIEAMLKAYQQKLFVTHTVDELLWGYKDEILSLIHVFRPDISPYFGLFYEKNGTNDGDYVFLTGEDSYLNFTKIVEWNGKTSLDWWITDKCNMINGTDGDSFHPLITKDEVLYVFPSDFCRSVYITFSDYESVQGLPAFRYKVPAEILANTSDNAGFCIPEGNCLGSGVLNVSICKNGAPIIMSFPHFYQADERFVSAIEGMHPNQEDHETFVDINPLTGIILKAAKRFQINIYVKKLDDFVETGDIRTMVFPVMYLNESVHIDKETASRLKSMINT
modifications: glycans trimmed to a single N-acetylglucosamine with endoglycosidase F1

Continued, binder first:

Binder: B1
Kd (H150T mutant LIMP-2 [1]): 2100 nM | Kd (H150T mutant LIMP-2 [2]): 2300 nM

B4: Wild-type LIMP-2 (soluble luminal domain; producing cells not stated for the experiment) (domain or fragment)
chain: VFQKAVDQSIEKKIVLRNGTEAFDSWEKPPLPVYTQFYFFNVTNPEEILRGETPRVEEVGPYTYRELRNKANIQFGDNGTTISAVSNKAYVFERDQSVGDPKIDLIRTLNIPVLTVIEWSQVHFLREIIEAMLKAYQQKLFVTHTVDELLWGYKDEILSLIHVFRPDISPYFGLFYEKNGTNDGDYVFLTGEDSYLNFTKIVEWNGKTSLDWWITDKCNMINGTDGDSFHPLITKDEVLYVFPSDFCRSVYITFSDYESVQGLPAFRYKVPAEILANTSDNAGFCIPEGNCLGSGVLNVSICKNGAPIIMSFPHFYQADERFVSAIEGMHPNQEDHETFVDINPLTGIILKAAKRFQINIYVKKLDDFVETGDIRTMVFPVMYLNESVHIDKETASRLKSMINT
Kd [9]: 1200 nM

B5: Human LIMP-2 luminal domain (residues 28-431) produced from HEK293S (GnTI-) cells, with limited glycosylation (domain or fragment)
chain: VFQKAVDQSIEKKIVLRNGTEAFDSWEKPPLPVYTQFYFFNVTNPEEILRGETPRVEEVGPYTYRELRNKANIQFGDNGTTISAVSNKAYVFERDQSVGDPKIDLIRTLNIPVLTVIEWSQVHFLREIIEAMLKAYQQKLFVTHTVDELLWGYKDEILSLIHVFRPDISPYFGLFYEKNGTNDGDYVFLTGEDSYLNFTKIVEWNGKTSLDWWITDKCNMINGTDGDSFHPLITKDEVLYVFPSDFCRSVYITFSDYESVQGLPAFRYKVPAEILANTSDNAGFCIPEGNCLGSGVLNVSICKNGAPIIMSFPHFYQADERFVSAIEGMHPNQEDHETFVDINPLTGIILKAAKRFQINIYVKKLDDFVETGDIRTMVFPVMYLNESVHIDKETASRLKSMINT
modifications: N-linked P-Man9GlcNAc2 (with terminal mannose 6-phosphate) at N325; sugars on all nine N-linked glycosylation sites, limited processing
Kd [10]: 1880 nM | Kd [11]: 1800 nM
